The values that follow are results of earlier work, collected in article PMC4327442.

In the data set the target is IL-18 (Homo sapiens) (UniProt Q14116).
Sequence of IL-18 (Homo sapiens) (Q14116 37-193): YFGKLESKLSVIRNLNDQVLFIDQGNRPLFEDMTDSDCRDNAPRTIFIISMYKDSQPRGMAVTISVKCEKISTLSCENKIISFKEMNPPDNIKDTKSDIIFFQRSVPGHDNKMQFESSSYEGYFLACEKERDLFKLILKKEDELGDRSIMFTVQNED

Sequence of IL-18BP (O95998 31-194): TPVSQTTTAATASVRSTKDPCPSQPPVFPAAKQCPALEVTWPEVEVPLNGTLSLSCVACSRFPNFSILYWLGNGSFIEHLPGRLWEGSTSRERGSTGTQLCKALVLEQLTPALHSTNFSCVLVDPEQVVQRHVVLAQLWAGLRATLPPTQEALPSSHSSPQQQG

On to IL-18BP (from UniProt O95998), for which the dissociation constant (Kd) – broadly, the free concentration of one partner at which half of the binding sites on the other are occupied at equilibrium, for simple one-to-one binding – is 0.399 nM.
